Assays:
[1] = biological target: pmGGG (Zif268-C7 finger 2 variant) finger 2 helix -2 to 6 = SRSDKLVR in Zif268-C7 (synthetic) (UniProt P08046); assay: EMSA; details: [7-9,26-28]
[2] = biological target: pmGTG (Zif268-C7 finger 2 variant) finger 2 helix -2 to 6 = SRSDELVR in Zif268-C7 (synthetic) (UniProt P08046); assay: EMSA; details: [7-9,26-28]
[3] = biological target: pGTA (Zif268-C7 finger 2 variant) finger 2 helix -2 to 6 = SQSSSLVR in Zif268-C7 (synthetic) (UniProt P08046); assay: EMSA
[4] = biological target: pGTG (Zif268-C7 finger 2 variant) finger 2 helix -2 to 6 = SRKDSLVR in Zif268-C7 (synthetic) (UniProt P08046); assay: EMSA; details: [7-9,26-28]
[5] = biological target: pmGAG (Zif268-C7 finger 2 variant) finger 2 helix -2 to 6 = SRSDNLVR in Zif268-C7 (synthetic) (UniProt P08046); assay: EMSA; details: [7-9,26-28]
[6] = biological target: pGGG (Zif268-C7 finger 2 variant) finger 2 helix -2 to 6 = SRSDHLTR in Zif268-C7 (synthetic) (UniProt P08046); assay: EMSA; details: [7-9,26-28]
[7] = test system: E2C-HS1(Sp1) (synthetic); assay: EMSA
[8] = test system: E2C-HS1(F2) (synthetic); assay: EMSA; details: ELISA binding good (Table 11)
[9] = test system: E2C-HS1(Zif) (synthetic); assay: EMSA
[10] = biological target: C7-PBD-VP64 (synthetic/human PR) (UniProt P08046); assay: cell_activity; details: +RU486
[11] = test system: E2C-HS2(Sp1) (synthetic); assay: EMSA
[12] = test system: E2C-HS2(Zif) (synthetic); assay: EMSA
[13] = test system: E2C-HS2(F2) (synthetic); assay: EMSA; details: ELISA binding good (Table 11)
[14] = biological target: pmGGT (Zif268-C7 finger 2 variant) finger 2 helix -2 to 6 = STSGHLVR in Zif268-C7 (synthetic) (UniProt P08046); assay: EMSA; details: [7-9,26-28]
[15] = test system: B3C2(Sp1)-VP64 (synthetic); assay: cell_activity; details: HeLa luciferase
[16] = test system: B3(F2) three-finger protein (synthetic); assay: EMSA
[17] = biological target: pmGCT (Zif268-C7 finger 2 variant) finger 2 helix -2 to 6 = STSGELVR in Zif268-C7 (synthetic) (UniProt P08046); assay: EMSA; details: [none]
[18] = biological target: pGCA (Zif268-C7 finger 2 variant) finger 2 helix -2 to 6 = SQSGDLRR in Zif268-C7 (synthetic) (UniProt P08046); assay: EMSA; details: [none]
[19] = test system: E2C(Sp1)-VP16 (synthetic); assay: cell_activity; details: HeLa luciferase
[20] = test system: E2C(F2) six-finger (synthetic); assay: EMSA
[21] = test system: E2C(Zif) six-finger (synthetic); assay: EMSA
[22] = test system: E2C(Sp1) six-finger (synthetic); assay: EMSA
[23] = test system: E2(F2) three-finger protein (synthetic); assay: EMSA
[24] = biological target: pmGTT (Zif268-C7 finger 2 variant) finger 2 helix -2 to 6 = STSGSLVR in Zif268-C7 (synthetic) (UniProt P08046); assay: EMSA; details: [none]
[25] = test system: VP16-C7-PR (synthetic/human PR); assay: cell_activity; details: RU486
[26] = biological target: VP16-C7-ER (synthetic/mouse ER) (UniProt P19785); assay: cell_activity; details: 4-OH tamoxifen
[27] = biological target: pmGAC (Zif268-C7 finger 2 variant) finger 2 helix -2 to 6 = SDPGNLVR in Zif268-C7 (synthetic) (UniProt P08046); assay: EMSA; details: [none]
[28] = biological target: pGGA (Zif268-C7 finger 2 variant) finger 2 helix -2 to 6 = SQRAHLER in Zif268-C7 (synthetic) (UniProt P08046); assay: EMSA; details: [7-9,26-28]
[29] = biological target: pGTC (Zif268-C7 finger 2 variant) finger 2 helix -2 to 6 = SDPGALVR in Zif268-C7 (synthetic) (UniProt P08046); assay: EMSA; details: [none]
[30] = biological target: pGCC (Zif268-C7 finger 2 variant) finger 2 helix -2 to 6 = SDCRDLAR in Zif268-C7 (synthetic) (UniProt P08046); assay: EMSA; details: [none]
[31] = biological target: pGAT (Zif268-C7 finger 2 variant) finger 2 helix -2 to 6 = STSGNLVR in Zif268-C7 (synthetic) (UniProt P08046); assay: EMSA; details: [none]
[32] = biological target: pmGCG (Zif268-C7 finger 2 variant) finger 2 helix -2 to 6 = SRSDDLVR in Zif268-C7 (synthetic) (UniProt P08046); assay: EMSA
[33] = test system: E2C(Sp1)-ERD six-finger repressor (synthetic); assay: cell_activity; details: approximately; HeLa luciferase
[34] = test system: E2C-ER//ER-KRAB heterodimer (synthetic); assay: cell_activity; details: tamoxifen-dependent; partner ratio 1/10
[35] = test system: E2C(Sp1) six-finger, no effector domain (synthetic); assay: cell_activity; details: approximately; HeLa luciferase, no effector domain
[36] = test system: SID-E2C(Sp1) six-finger repressor (synthetic); assay: cell_activity; details: approximately; HeLa luciferase
[37] = test system: E2C-ER//ER-VP64 heterodimer (synthetic); assay: cell_activity; details: tamoxifen-dependent; maximum at optimised partner ratio
[38] = test system: E2E-PBD-VP64 (synthetic); assay: cell_activity; details: +RU486; basal 18259, control 17209
[39] = test system: C5(F2) three-finger protein (synthetic); assay: EMSA
[40] = biological target: pmGGC (Zif268-C7 finger 2 variant) finger 2 helix -2 to 6 = SDPGHLVR in Zif268-C7 (synthetic) (UniProt P08046); assay: EMSA; details: [7-9,26-28]
[41] = test system: B3B(Sp1)-VP64 (synthetic); assay: cell_activity; details: HeLa luciferase
[42] = test system: E2F-PBD-VP64 heterodimer (synthetic/human PR); assay: cell_activity; details: basal; 54986 with RU486; pcDNA control 17209
[43] = biological target: C7 (Zif268-C7) (synthetic) (UniProt P08046); assay: EMSA; details: [none]
[44] = biological target: pmGAA (Zif268-C7 finger 2 variant) finger 2 helix -2 to 6 = SQSSNLVR in Zif268-C7 (synthetic) (UniProt P08046); assay: EMSA; details: [none]

Substance: GGACGCCACCGCGGGTTTTCCCGCGGTGGCGTCC [F2 site GTG]
- Kd [1]: > 1.4 µM
- Kd [2]: 0.015 µM
- Kd ([3]; [7-9,26-28]): > 1 µM
- Kd [4]: 0.003 µM

Substance: GGACGCCCCCGCGGGTTTTCCCGCGGGGGCGTCC [F2 site GGG]
- Kd [5]: 0.045 µM
- Kd [1]: 0.006 µM
- Kd [6]: 0.0004 µM

Substance: GGGGCCGGAG (double strand) [e2c-hs1]
- Kd [7]: 0.035 µM
- Kd [8]: 0.045 µM
- Kd [9]: 0.07 µM

Substance: C7 direct repeat, 4 bp spacer, TATA reporter
- activity (luciferase units) ([10]; 3966 without): 6940

Substance: GCCGCAGTGG (double strand) [e2c-hs2]
- Kd [11]: 0.025 µM
- Kd [12]: 0.075 µM
- Kd [13]: 0.07 µM

Substance: C7 direct repeat, 3 bp spacer, TATA reporter
- activity (luciferase units) ([10]; 3269 without): 5140

Substance: GGACGCACCCGCGGGTTTTCCCGCGGGTGCGTCC [F2 site GGT]
- Kd [14]: 0.015 µM

Substance: C7 direct repeat, 5 bp spacer, TATA reporter
- activity (luciferase units) ([10]; 2597 without): 5460

Substance: GGAGGGGACGCGGTGGGT (double strand) [integrin beta3 promoter reporter, b3c2 site]
- activity (fold activation) [15]: 22

Substance: C7 inverted repeat, 5 bp spacer, TATA reporter
- activity (luciferase units) ([10]; 4704 without): 12400

Substance: GGAGGGGAGG (double strand) [b3]
- Kd [16]: 0.004 µM

Substance: GGACGCAGCCGCGGGTTTTCCCGCGGCTGCGTCC [F2 site GCT]
- Kd [17]: 0.065 µM
- Kd [18]: 0.01 µM

Substance: GGGGCCGGAGCCGCAGTG (double strand) [erbB-2 promoter reporter, E2C site]
- activity (fold activation) [19]: 5

Substance: GGGGCCGGAGCCGCAGTGG (double strand) [e2c-g]
- Kd [20]: 0.025 µM
- Kd [21]: 0.0016 µM
- Kd [22]: 0.0005 µM

Substance: AGTCTGAATGCCGCAGTGG (double strand) [e2c-muths1]
- Kd [21]: 0.2 µM
- Kd [22]: 0.065 µM

Substance: C7 everted repeat, 2 bp spacer, TATA reporter
- activity (luciferase units) ([10]; 7880 without): 20800

Substance: C7 everted repeat, 3 bp spacer, TATA reporter
- activity (luciferase units) ([10]; 9670 without): 21500

Substance: GGGGGCGAGG (double strand) [e2]
- Kd [23]: 0.003 µM

Substance: GGACGCAACCGCGGGTTTTCCCGCGGTTGCGTCC [F2 site GTT]
- Kd [24]: 0.005 µM

Substance: GGACGCTGCCGCGGGTTTTCCCGCGGCAGCGTCC [F2 site GCA]
- Kd [18]: 0.002 µM

Substance: GGGGCCGGAGCCGCAGTGA (double strand) [e2c-a]
- Kd [21]: 0.0023 µM
- Kd [22]: 0.00075 µM

Substance: 10xC7 pGL3prom reporter
- activity (fold induction) [25]: 26
- activity (fold induction) [26]: 43

Substance: GGACGCGTCCGCGGGTTTTCCCGCGGACGCGTCC [F2 site GAC]
- Kd [27]: 0.003 µM

Substance: C7 inverted repeat, 4 bp spacer, TATA reporter
- activity (luciferase units) ([10]; 3502 without): 8860

Substance: C7 inverted repeat, 3 bp spacer, TATA reporter
- activity (luciferase units) ([10]; 7132 without): 12800

Substance: GGACGCTCCCGCGGGTTTTCCCGCGGGAGCGTCC [F2 site GGA]
- Kd [28]: 0.003 µM

Substance: GGACGCGGCCGCGGGTTTTCCCGCGGCCGCGTCC [F2 site GCC]
- Kd [29]: > 4.4 µM
- Kd [27]: 0.09 µM
- Kd [30]: 0.08 µM

Substance: C7 everted repeat, 4 bp spacer, TATA reporter
- activity (luciferase units) ([10]; 6974 without): 8900

Substance: GGACGCTACCGCGGGTTTTCCCGCGGTAGCGTCC [F2 site GTA]
- Kd ([3]; [none]): 0.025 µM

Substance: GGACGCATCCGCGGGTTTTCCCGCGGATGCGTCC [F2 site GAT]
- Kd [31]: 0.003 µM

Substance: GGACGCCTCCGCGGGTTTTCCCGCGGAGGCGTCC [F2 site GAG]
- Kd [5]: 0.001 µM
- Kd ([32]; [7-9,26-28]): 0.006 µM
- Kd [2]: 0.03 µM

Substance: C7 inverted repeat, 0 spacer, TATA reporter
- activity (luciferase units) ([10]; 2921 without): 10800

Substance: C7 inverted repeat, 1 bp spacer, TATA reporter
- activity (luciferase units) ([10]; 4342 without): 9530

Substance: GGGGCCGGAGCCGCAGTG (double strand) [E2C site in erbB-2 promoter reporter]
- activity [33]: 50 % repression
- activity (fold repression) [34]: 2.9
- activity [35]: 30 % repression
- activity [36]: 80 % repression
- activity (fold activation) [37]: 5.3

Substance: C7 everted repeat, 1 bp spacer, TATA reporter
- activity (luciferase units) ([10]; 6029 without): 13600

Substance: GCCGGAGCCATGGGGCCGGAGCC (double strand) [E2E site in erbB-2 promoter reporter]
- activity (luciferase units) [38]: 15900

Substance: GGAGGCGGGG (double strand) [c5]
- Kd [39]: 0.03 µM

Substance: GGACGCGCCCGCGGGTTTTCCCGCGGGCGCGTCC [F2 site GGC]
- Kd [14]: > 2.4 µM
- Kd [40]: 0.04 µM

Substance: C7 direct repeat, 0 spacer, TATA reporter
- activity (luciferase units) ([10]; 4081 without): 20000

Substance: GCCTGAGAGGGAGCGGTG (double strand) [integrin beta3 promoter reporter, b3b site]
- activity (fold activation) [41]: 12

Substance: GAGGAGGGCTGCTTGAGGAAGTA (double strand) [erbB-2 promoter reporter, E2F dimer site]
- activity (luciferase units) [42]: 61400

Substance: GGACGCGACCGCGGGTTTTCCCGCGGTCGCGTCC [F2 site GTC]
- Kd [29]: 0.04 µM

Substance: C7 direct repeat, 1 bp spacer, TATA reporter
- activity (luciferase units) ([10]; 3383 without): 8200

Substance: C7 everted repeat, 5 bp spacer, TATA reporter
- activity (luciferase units) ([10]; 6892 without): 13100

Substance: GGACGCCCACGCGGGTTTTCCCGCGTGGGCGTCC [F2 site TGG]
- Kd [43]: 0.0005 µM

Substance: GGACGCCGCCGCGGGTTTTCCCGCGGCGGCGTCC [F2 site GCG]
- Kd ([32]; [none]): 0.009 µM

Substance: GGGGCCGGAAGTCTGAATG (double strand) [e2c-muths2]
- Kd [21]: 0.2 µM
- Kd [22]: 0.1 µM

Substance: C7 direct repeat, 2 bp spacer, TATA reporter
- activity (luciferase units) ([10]; 3417 without): 8170

Substance: GGACGCTTCCGCGGGTTTTCCCGCGGAAGCGTCC [F2 site GAA]
- Kd [44]: 0.0005 µM

Substance: C7 inverted repeat, 2 bp spacer, TATA reporter
- activity (luciferase units) ([10]; 6964 without): 19200

Substance: C7 everted repeat, 0 spacer, TATA reporter
- activity (luciferase units) ([10]; 8750 without): 17400

— patent US20030186841
